From the supplement of paper PMC7877785
± gives the uncertainty stated by the source.

Experiment: self-splicing fitness, log relative to wild type (ln ratio); higher = more splicing; Tetrahymena group I intron in knt gene, E. coli kanamycin selection, DiMSum; sequences stand for … in CUCUCU…GGAGGGAAAAGUUAUCAGGCAUGCACCUGGUAGCUAGUCUUUAAACCAAUAGAUUGCAUCGGUUUAAAAGGCAAGACCGUCAAAUUGCGGGAAAGGGGUCAACAGCCGUUCAGUACCAAGUCUCAGGGGAAACUUUGAGAUGGCCUUGCAAAGGGUAUGGUAAUAAGCUGACGGACAUGGUCCUAACCACGCAGCCAAGUCCUAAGUCAACAGAUCUUCUGUUGAUAUGGAUGCAGUUCACAGACUAAAUGUCGGUCGGGGAAGAUGUAUUCUUCUCAUAAGAUAUAGUCGGACCUCUCCUUAAUGGGAGCUAGCGGAUGAAGUGAUGCAACACUGGAGCCGCUGGGAACUAAUUUGUAUGCGAAAGUAUAUUGAUUAGUUUUGGAGUACUCGUGGUCG
How it was run: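 Pooled colonies went to amplicon sequencing on an Illumina HiSeq 2500 after six replicate transformations. The plates were LB agar with 100 μg/mL carbenicillin, 50 μM IPTG and 0.2% rhamnose, with or without 25 μg/mL kanamycin, incubated overnight at 37°C or 30°C. The E. coli BL21(DE3) library had all eight P1ex-region intron nucleotides randomised, the intron placed in the knt kanamycin-resistance gene on pET-22b(+). DiMSum fitness is the error-weighted combination of replicate fold changes, kanamycin against none, normalised to wild type.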

| Sequence | self-splicing fitness (ln) (30 °C) | self-splicing fitness (ln) (37 °C) |
| --- | --- | --- |
| AUACAGCAAUAUUACGGAGC | -3.27 ± 0.28 | -2.78 ± 0.26 |
| CCCGAGCAAUAUUACGACAU | -3.865 ± 0.026 | -2.88 ± 0.041 |
| UCCAAGCAAUAUUACGUAUU | -3.44 ± 0.19 | -2.46 ± 0.21 |
| AGAGAGCAAUAUUACGCACA | -3.27 ± 0.48 |  |
| UGACAGCAAUAUUACGGGAU | -3.3 ± 0.17 | -2.94 ± 0.15 |
| UUCAAGCAAUAUUACGGUGC | -2.77 ± 0.42 | -0.868 ± 0.3 |
| UCGGAGCAAUAUUACGAUGA | -0.946 ± 0.15 | -1.11 ± 0.16 |
| GCCUAGCAAUAUUACGUAUA | -3.04 ± 0.25 | -1.63 ± 0.15 |
| AAAAAGCAAUAUUACGACUU | 0.0987 ± 0.065 | -0.391 ± 0.085 |
| UCGCAGCAAUAUUACGCGCU | -1.23 ± 0.12 | -1.19 ± 0.21 |
| CCGCAGCAAUAUUACGGGAG | -3.26 ± 0.16 | -3.06 ± 0.24 |
| UCAUAGCAAUAUUACGACUU | -3.87 ± 0.28 | -2.42 ± 0.39 |
| GUAGAGCAAUAUUACGUGUG | -0.928 ± 0.073 | -1.6 ± 0.12 |
| CGAGAGCAAUAUUACGCCUC | -4.16 ± 0.39 | -1.27 ± 0.18 |
| GCGUAGCAAUAUUACGAUCU | -1.34 ± 0.17 | -0.0119 ± 0.18 |
| AGGUAGCAAUAUUACGUACU | -0.29 ± 0.014 | -0.101 ± 0.034 |
| CAUUAGCAAUAUUACGUCCA | -3.34 ± 0.32 | -1.3 ± 0.28 |
| UUUCAGCAAUAUUACGCAAG | -1.27 ± 0.11 | -0.106 ± 0.13 |
| GACAAGCAAUAUUACGUCUA | -2.01 ± 0.079 | -1.04 ± 0.082 |

| Sequence | self-splicing fitness (ln) (30 °C) | self-splicing fitness (ln) (37 °C) |
| --- | --- | --- |
| AGUGAGCAAUAUUACGAACG | -0.686 ± 0.094 | -0.206 ± 0.15 |
| GCAUAGCAAUAUUACGUGGA | -3.06 ± 0.25 | -1.75 ± 0.17 |
| GGAUAGCAAUAUUACGUGAU | -2.44 ± 0.06 | -1.06 ± 0.074 |
| ACGCAGCAAUAUUACGCCUA | -0.946 ± 0.088 | 0.0129 ± 0.093 |
| CCUUAGCAAUAUUACGCUUC | -3.71 ± 0.31 | -1.83 ± 0.24 |
| UGGUAGCAAUAUUACGGCAG | -1.15 ± 0.13 | 0.129 ± 0.17 |
| UGUCAGCAAUAUUACGGCUA | 0.131 ± 0.094 | 0.327 ± 0.12 |
| GUUAAGCAAUAUUACGAUUA | -1.04 ± 0.13 | -0.324 ± 0.11 |
| CACUAGCAAUAUUACGAGCG | -0.458 ± 0.083 | 0.257 ± 0.086 |
| GUGAAGCAAUAUUACGAAGU | -0.832 ± 0.14 | -1.05 ± 0.16 |
| UUGUAGCAAUAUUACGAUAG | -1.52 ± 0.2 | -1.16 ± 0.17 |
| CGACAGCAAUAUUACGCGUG | -1.55 ± 0.067 | -1.14 ± 0.095 |
| GUAAAGCAAUAUUACGAUAG | -1.08 ± 0.075 | -0.747 ± 0.11 |
| UUUAAGCAAUAUUACGGGCC |  | -2.57 ± 0.49 |
| AAUCAGCAAUAUUACGACCA | -0.116 ± 0.1 | 0.885 ± 0.12 |
| ACCCAGCAAUAUUACGCGCU | -1.91 ± 0.097 | -1.36 ± 0.11 |
| CCACAGCAAUAUUACGACUU | -4 ± 0.28 | -2.81 ± 0.27 |
| AGGUAGCAAUAUUACGGUGA | -1.732 ± 0.017 | -1.06 ± 0.033 |
| CUGAAGCAAUAUUACGCAGC | -3.2 ± 0.4 | -1.77 ± 0.45 |
